The experiment deals with T1, GST-leupaxin FL (mouse, UniProt Q99N69 1-386).
T1 sequence (looked up): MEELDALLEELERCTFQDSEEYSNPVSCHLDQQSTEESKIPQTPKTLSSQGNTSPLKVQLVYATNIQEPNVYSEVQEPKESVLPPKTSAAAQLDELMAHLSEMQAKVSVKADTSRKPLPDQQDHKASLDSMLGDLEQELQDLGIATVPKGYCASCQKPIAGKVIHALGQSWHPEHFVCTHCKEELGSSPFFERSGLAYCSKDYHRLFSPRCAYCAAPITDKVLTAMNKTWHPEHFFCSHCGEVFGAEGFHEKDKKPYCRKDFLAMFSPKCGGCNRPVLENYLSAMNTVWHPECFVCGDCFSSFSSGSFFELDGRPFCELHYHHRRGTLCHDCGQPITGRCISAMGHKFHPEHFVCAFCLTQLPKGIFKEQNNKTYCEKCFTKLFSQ
Put plainly: pull-down.

We go through one molecule from article PMC6781449 (The Journal of Cell Biology, 2019).

B1: HisSUMO-tagged kindlin-3 F0 domain (domain or fragment, UniProt Q8K1B8 1-97, looked up)
chain: MAGMKTASGDYIDSSWELRVFVGEEDPEAQSVTLRVTGESHIGGVLLKIVEEINRKQDWSDHAIWWEQKRQWLLQTHWTLDKYGILADARLFFGPQH
For the molecule B1, the binding result is on record as “binds”.
